Blank lines part the entries; values can stand above or below the molecule they belong to.
What was measured:
[1] = target: EGF (Homo sapiens) (UniProt P01133); conditions: cited from earlier work
[2] = target: biotinylated HER3 extracellular domain (ECD) (UniProt P21860 20-643, biotin on the C-terminal BirA biotinylation site); experiment: ELISA
Sequence of biotinylated HER3 extracellular domain (ECD) (P21860 20-643): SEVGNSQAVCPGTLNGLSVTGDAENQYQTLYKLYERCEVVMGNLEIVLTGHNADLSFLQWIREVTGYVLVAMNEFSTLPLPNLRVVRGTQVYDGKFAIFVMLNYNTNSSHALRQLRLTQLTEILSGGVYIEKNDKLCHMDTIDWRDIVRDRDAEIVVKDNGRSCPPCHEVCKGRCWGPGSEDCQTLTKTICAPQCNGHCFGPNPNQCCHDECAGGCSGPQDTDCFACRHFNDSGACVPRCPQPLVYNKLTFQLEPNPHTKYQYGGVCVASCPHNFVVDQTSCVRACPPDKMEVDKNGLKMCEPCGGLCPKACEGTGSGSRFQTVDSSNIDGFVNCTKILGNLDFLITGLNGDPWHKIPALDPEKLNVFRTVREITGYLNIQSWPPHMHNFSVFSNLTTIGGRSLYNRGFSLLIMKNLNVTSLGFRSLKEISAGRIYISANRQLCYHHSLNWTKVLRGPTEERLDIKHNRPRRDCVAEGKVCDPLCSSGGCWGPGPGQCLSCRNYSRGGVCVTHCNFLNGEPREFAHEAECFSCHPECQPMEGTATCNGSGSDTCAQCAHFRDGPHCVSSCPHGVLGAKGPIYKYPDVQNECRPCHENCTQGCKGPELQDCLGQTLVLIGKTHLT

Sequence of EGF (Homo sapiens) (P01133 971-1023): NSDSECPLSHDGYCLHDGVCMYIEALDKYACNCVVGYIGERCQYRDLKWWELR

Molecule: EGFR (from UniProt P00533)
Kd [1]: 177 nM

Kd [2]: 12.6 nM
B1: Heregulin-β1 (Hrgβ1) (ligand)
chain: TSHLVKCAEKEKTFCVNGGECFMVKDLSNPSRYLCKCPNEFTGDRCQNYVMASFYKHLGIEFMEAEELYQK

— paper PMC7542843 (ACS Omega, 2020)
